From patent publication US9309288B2, “Selective αvβ3 receptor peptide antagonist for therapeutic and diagnostic applications” (ADVANCED ACCELERATOR APPLICATIONS, priority 2005, dated 2016)

Target: αvβ3 (Homo sapiens, UniProt P05106+P06756)
Test: Cell adhesion assay, αvβ3 overexpressing K562 cells (Kαvβ3) on vitronectin
Type: cell-based
Set-up: expressed in transfected cells; host or cells: K562 (human erythroleukemia), gift of Dr. S. D. Blystone
Conditions: 10 μM peptide
Protocol: Cell Adhesion and Competitive Assay: Human erythroleukemia K562 cells, stably cotransfected with cDNA of αv or αIIb subunit and β3 or β5 subunits, were kindly provided by Dr. S. D. Blystone (SUNY Upstate Medical University, Syracuse, N.Y.). Cells were maintained in Iscove's Modified Dubecco's Medium (IMDM) supplemented with 10% heat-inactivated fetal bovine serum, 100 IU/ml penicillin, 50 μg/mL streptomycin and 500 μg/mL G418 in a humidified incubator with 5% CO2 at 37° C. […] Cells were used to determine affinity for αvβ3 and cross-reactivity with αvβ5 and αIIbβ3 integrin.
Briefly, 24-well flat-bottom plates were incubated overnight with 5 μg/mL vitronectin. The pre-coated plates were rinsed with PBS, incubated for 1 h at 23° C. with 1% heat-denatured bovine serum albumin, and rinsed again. Then, αvβ3 overexpressing K562 cells were incubated with various concentrations of cyclic RGD peptides or diluents for 1 h at 4° C. Peptide-treated cells (0.2-0.5×106/100 μL/well) were seeded onto pre-coated plates and allowed to adhere for 1 h at 37° C. in 5% CO2. Non-adherent cells were removed with gentle washing, whereas adherent cells were detached by trypsinization and counted. Three different adhesion assays were performed in duplicates.
All synthesized peptides were tested for their ability to inhibit cell adhesion to vitronectin. […]

Sequence of αvβ3 (P06756 31-889 limits assumed): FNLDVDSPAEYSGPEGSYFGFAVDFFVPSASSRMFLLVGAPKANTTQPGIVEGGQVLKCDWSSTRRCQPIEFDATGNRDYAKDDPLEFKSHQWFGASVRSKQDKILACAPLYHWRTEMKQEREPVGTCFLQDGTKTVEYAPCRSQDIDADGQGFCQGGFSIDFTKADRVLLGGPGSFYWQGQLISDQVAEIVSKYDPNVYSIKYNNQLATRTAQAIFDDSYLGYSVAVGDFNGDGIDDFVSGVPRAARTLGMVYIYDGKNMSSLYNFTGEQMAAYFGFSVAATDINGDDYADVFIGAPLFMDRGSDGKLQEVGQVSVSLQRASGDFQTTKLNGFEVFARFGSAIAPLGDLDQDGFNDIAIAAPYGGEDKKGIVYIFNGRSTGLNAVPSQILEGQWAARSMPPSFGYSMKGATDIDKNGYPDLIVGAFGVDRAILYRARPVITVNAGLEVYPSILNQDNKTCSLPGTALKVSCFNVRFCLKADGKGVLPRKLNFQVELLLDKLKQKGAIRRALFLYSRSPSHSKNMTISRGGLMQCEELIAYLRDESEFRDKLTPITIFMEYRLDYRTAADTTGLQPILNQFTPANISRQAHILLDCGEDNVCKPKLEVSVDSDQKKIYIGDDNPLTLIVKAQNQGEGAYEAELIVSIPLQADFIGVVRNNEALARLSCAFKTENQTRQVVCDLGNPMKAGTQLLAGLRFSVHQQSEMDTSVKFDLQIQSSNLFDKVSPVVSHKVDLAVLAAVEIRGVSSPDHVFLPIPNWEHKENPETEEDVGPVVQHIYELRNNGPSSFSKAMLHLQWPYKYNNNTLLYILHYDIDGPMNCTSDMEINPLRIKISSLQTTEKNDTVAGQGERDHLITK
Sequence of αvβ3 (P06756 891-1048 partner limits assumed): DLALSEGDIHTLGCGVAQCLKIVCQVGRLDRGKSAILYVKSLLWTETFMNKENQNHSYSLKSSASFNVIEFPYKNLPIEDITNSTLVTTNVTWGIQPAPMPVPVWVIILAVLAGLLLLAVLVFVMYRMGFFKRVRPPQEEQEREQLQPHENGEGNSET
Sequence of αvβ3 (P05106 27-788): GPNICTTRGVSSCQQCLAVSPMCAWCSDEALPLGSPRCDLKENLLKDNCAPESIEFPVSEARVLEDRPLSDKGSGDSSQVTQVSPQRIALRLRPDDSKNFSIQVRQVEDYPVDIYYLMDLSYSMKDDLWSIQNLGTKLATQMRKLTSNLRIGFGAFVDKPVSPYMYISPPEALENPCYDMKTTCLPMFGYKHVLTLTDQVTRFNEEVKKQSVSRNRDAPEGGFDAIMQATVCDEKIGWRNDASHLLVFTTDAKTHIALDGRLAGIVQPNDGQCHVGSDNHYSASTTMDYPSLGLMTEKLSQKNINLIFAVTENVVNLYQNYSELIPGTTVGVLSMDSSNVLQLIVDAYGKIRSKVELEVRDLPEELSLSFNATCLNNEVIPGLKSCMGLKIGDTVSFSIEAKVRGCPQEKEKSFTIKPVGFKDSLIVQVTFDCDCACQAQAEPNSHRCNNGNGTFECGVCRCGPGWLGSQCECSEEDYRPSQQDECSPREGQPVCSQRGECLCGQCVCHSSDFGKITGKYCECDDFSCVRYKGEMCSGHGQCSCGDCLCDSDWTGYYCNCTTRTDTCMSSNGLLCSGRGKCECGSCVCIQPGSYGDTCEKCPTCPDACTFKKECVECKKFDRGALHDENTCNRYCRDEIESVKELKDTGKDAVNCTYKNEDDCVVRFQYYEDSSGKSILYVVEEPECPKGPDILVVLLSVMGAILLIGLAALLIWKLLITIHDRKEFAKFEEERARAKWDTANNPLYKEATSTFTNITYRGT

RNPHKGPAT [echi 11-19]
cell adhesion remaining as compared to untreated control cells: 97.5%

echi6-19: fragment of the RGDechi sequence (SEQ ID NO: 2) (MDDPGRNPHKGPAT)
cell adhesion remaining as compared to untreated control cells: 99.0%
